This is an account of results in the Immune Epitope Database (IEDB).

Among the targets are HLA-A*03:01; HLA-A*11:01; HLA-A*31:01; HLA-A*33:01; HLA-A*68:01.
What all share (experiment): IEDB peptide-MHC binding, purified MHC/competitive/radioactivity; filed as Kd, often an IC50 or EC50 that approximates it; ≥ and ≤ were set here for values at or beyond the usual limits of such assays
[1] abbreviates: source organism: SARS coronavirus Tor2.
The mark [2] stands for this setting: source organism: Vaccinia virus WR.
The mark [3] stands for this setting: source organism: Mammarenavirus juninense.
Setting [4] is: source organism: Mammarenavirus whitewaterense.
Where [5] appears, read: source organism: Lymphocytic choriomeningitis virus (strain Armstrong).

Some results are limits rather than exact numbers.

On to PVVAAIITR, for which the Kd in the assay with HLA-A*03:01 (setting [1]) stood at 11200 nM; with HLA-A*11:01 (setting [1]), 1790 nM; in the assay with HLA-A*31:01 (setting [1]) it was 1240 nM; with HLA-A*33:01 (setting [1]), 7790 nM; in the assay with HLA-A*68:01 (setting [1]), 269 nM.

AIITPVVFYR: the Kd with HLA-A*03:01 (setting [2]) is 3700 nM; with HLA-A*11:01 (setting [2]) it was 11.3 nM; in the assay with HLA-A*31:01 (setting [2]), 11.6 nM; with HLA-A*33:01 (setting [2]), 311 nM; with HLA-A*68:01 (setting [2]), 1.72 nM.

Regarding WIKNLETYTR, the Kd in the assay with HLA-A*03:01 (setting [2]) was no less than 40900 nM; with HLA-A*11:01 (setting [2]) it was 6310 nM; in the assay with HLA-A*31:01 (setting [2]) it was 361 nM; with HLA-A*33:01 (setting [2]), 1130 nM; with HLA-A*68:01 (setting [2]), 38.1 nM.

Take AVNTPVSMTY: the Kd in the assay with HLA-A*03:01 (setting [2]) is 71.5 nM; with HLA-A*11:01 (setting [2]), 20.7 nM; with HLA-A*31:01 (setting [2]) it was 7440 nM; in the assay with HLA-A*33:01 (setting [2]), no less than 70000 nM; with HLA-A*68:01 (setting [2]) it was 4660 nM.

As for NIERQDYRR, the Kd with HLA-A*03:01 (setting [2]) was no less than 66800 nM; with HLA-A*11:01 (setting [2]), 12000 nM; with HLA-A*31:01 (setting [2]), 1500 nM; with HLA-A*33:01 (setting [2]) it was 924 nM; with HLA-A*68:01 (setting [2]) it was 119 nM.

For the sequence SSGFYFEIAR, the Kd is no less than 21300 nM in the assay with HLA-A*03:01 (setting [2]); 90.6 nM with HLA-A*11:01 (setting [2]); 14.2 nM with HLA-A*31:01 (setting [2]); 179 nM in the assay with HLA-A*33:01 (setting [2]); 13.3 nM in the assay with HLA-A*68:01 (setting [2]).

For the sequence TAVAKCNLNH, the Kd with HLA-A*03:01 (setting [3]) is no less than 70000 nM; with HLA-A*11:01 (setting [3]), no less than 69700 nM; in the assay with HLA-A*31:01 (setting [3]), no less than 70000 nM; with HLA-A*33:01 (setting [3]), 9990 nM; with HLA-A*68:01 (setting [3]), no less than 70100 nM.

On to TIERIFNAK, for which the Kd was determined as 3190 nM with HLA-A*03:01 (setting [2]); 1.16 nM with HLA-A*11:01 (setting [2]); 240 nM with HLA-A*31:01 (setting [2]); 1980 nM with HLA-A*33:01 (setting [2]); 19.8 nM with HLA-A*68:01 (setting [2]).

VVVKDDPDHY: the Kd with HLA-A*03:01 (setting [2]) is no less than 28000 nM; in the assay with HLA-A*11:01 (setting [2]), no less than 21600 nM; in the assay with HLA-A*31:01 (setting [2]), no less than 70000 nM; with HLA-A*33:01 (setting [2]), no less than 70000 nM; in the assay with HLA-A*68:01 (setting [2]), no less than 70200 nM.

As to DFSKSTSPTR, the equilibrium dissociation constant (Kd) in the assay with HLA-A*03:01 (setting [2]) turned out to be 2720 nM; in the assay with HLA-A*11:01 (setting [2]) it was 4490 nM; with HLA-A*31:01 (setting [2]) it was 278 nM; in the assay with HLA-A*33:01 (setting [2]), 1040 nM; in the assay with HLA-A*68:01 (setting [2]), 112 nM.

Consider CVFAYVGCY, for which the Kd is 19200 nM in the assay with HLA-A*03:01 (setting [1]); no less than 27500 nM with HLA-A*11:01 (setting [1]); 11900 nM in the assay with HLA-A*31:01 (setting [1]); no less than 20600 nM with HLA-A*33:01 (setting [1]); 4120 nM with HLA-A*68:01 (setting [1]).

In the case of LMTLDDLAIK, the Kd is 1670 nM with HLA-A*03:01 (setting [2]); 478 nM with HLA-A*11:01 (setting [2]); no less than 40700 nM with HLA-A*31:01 (setting [2]); no less than 20900 nM with HLA-A*33:01 (setting [2]); 2490 nM in the assay with HLA-A*68:01 (setting [2]).

On to NTVVRDFENY, for which the Kd with HLA-A*03:01 (setting [2]) was no less than 39700 nM; in the assay with HLA-A*11:01 (setting [2]) it was 520 nM; with HLA-A*31:01 (setting [2]), no less than 70000 nM; with HLA-A*33:01 (setting [2]), no less than 21700 nM; with HLA-A*68:01 (setting [2]) it was 235 nM.

On to VLAAECTIFK, for which the Kd with HLA-A*03:01 (setting [1]) was found to be 59.9 nM; with HLA-A*11:01 (setting [1]) it was 104 nM; with HLA-A*31:01 (setting [1]), 133 nM; with HLA-A*33:01 (setting [1]) it was 70.2 nM; with HLA-A*68:01 (setting [1]), 258 nM.

Regarding ASLKNTISK, the Kd is 6.45 nM in the assay with HLA-A*03:01 (setting [2]); 5.21 nM with HLA-A*11:01 (setting [2]); 1800 nM with HLA-A*31:01 (setting [2]); no less than 77700 nM with HLA-A*33:01 (setting [2]); 3750 nM with HLA-A*68:01 (setting [2]).

Turning to HSNLTETFR, the dissociation constant Kd with HLA-A*03:01 (setting [2]) was determined as 112 nM; with HLA-A*11:01 (setting [2]) it was 40.6 nM; with HLA-A*31:01 (setting [2]) it was 0.596 nM; with HLA-A*33:01 (setting [2]), 4.95 nM; in the assay with HLA-A*68:01 (setting [2]) it was 0.414 nM.

In the case of KWMLISSELK, the Kd with HLA-A*03:01 (setting [4]) stood at 19.9 nM; with HLA-A*11:01 (setting [4]), 248 nM; with HLA-A*31:01 (setting [4]), 127 nM; with HLA-A*33:01 (setting [4]), 10500 nM; with HLA-A*68:01 (setting [4]), 891 nM.

Turning to LIVTFRERY, the Kd with HLA-A*03:01 (setting [2]) stood at 4680 nM; in the assay with HLA-A*11:01 (setting [2]), 187 nM; with HLA-A*31:01 (setting [2]), 836 nM; in the assay with HLA-A*33:01 (setting [2]) it was 4130 nM; in the assay with HLA-A*68:01 (setting [2]) it was 408 nM.

As to DLTALLSCIR, the Kd with HLA-A*03:01 (setting [2]) was 13200 nM; with HLA-A*11:01 (setting [2]), 1560 nM; with HLA-A*31:01 (setting [2]), 510 nM; with HLA-A*33:01 (setting [2]) it was 76.8 nM; with HLA-A*68:01 (setting [2]), 10.9 nM.

With ASTTENAAY, the Kd with HLA-A*03:01 (setting [2]) is 2170 nM; with HLA-A*11:01 (setting [2]), 307 nM; with HLA-A*31:01 (setting [2]), no less than 71400 nM; with HLA-A*33:01 (setting [2]), 3880 nM; with HLA-A*68:01 (setting [2]) it was 2420 nM.

Consider YSKFWYLEH, for which the Kd with HLA-A*03:01 (setting [5]) was no less than 78000 nM; with HLA-A*11:01 (setting [5]) it was no less than 40900 nM; with HLA-A*31:01 (setting [5]) it was 6010 nM; with HLA-A*33:01 (setting [5]), 12400 nM; with HLA-A*68:01 (setting [5]) it was no less than 77600 nM.

DISKLTNFK: the Kd turned out to be 781 nM with HLA-A*03:01 (setting [2]); 338 nM with HLA-A*11:01 (setting [2]); 5480 nM in the assay with HLA-A*31:01 (setting [2]); 48 nM in the assay with HLA-A*33:01 (setting [2]); 1.21 nM in the assay with HLA-A*68:01 (setting [2]).

Turning to TTFDAEYCR, the Kd was no less than 33800 nM with HLA-A*03:01 (setting [1]); 76.1 nM in the assay with HLA-A*11:01 (setting [1]); 103 nM with HLA-A*31:01 (setting [1]); 111 nM with HLA-A*33:01 (setting [1]); 2.05 nM with HLA-A*68:01 (setting [1]).
